Results taken from the supplement of paper PMC10567573.

B1: DCAF4 (parent)
chain: DSHILLCLMGLAETPGCATLLPAS

Variants of: B1
Experiment: protein stability index of a GFP-peptide fusion (GPS, HEK-293T) (PSI 1-6); higher = more stable
Details: c terminus: a fixed tail appended
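Further: lentivirally expressed fusions sorted by FACS into six bins by GFP to DsRed ratio, PSI derived from sequencing read proportions per bin multiplied by bin number.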

Variant | protein stability index
DSHILECLMGLAETPGCATLLPAS | 2.01
DSHILFCLMGLAETPGCATLLPAS | 2.68
DSHILACLMGLAETPGCATLLPAS | 1.87
DSHILTCLMGLAETPGCATLLPAS | 1.5
DSHILPCLMGLAETPGCATLLPAS | 2.74
DSHILYCLMGLAETPGCATLLPAS | 2.86
DSHILCCLMGLAETPGCATLLPAS | 3.71
DSHILWCLMGLAETPGCATLLPAS | 4.4
DSHILDCLMGLAETPGCATLLPAS | 2.22
DSHILICLMGLAETPGCATLLPAS | 2.56
DSHILVCLMGLAETPGCATLLPAS | 1.37
DSHILQCLMGLAETPGCATLLPAS | 1.81
DSHILKCLMGLAETPGCATLLPAS | 2.19
DSHILNCLMGLAETPGCATLLPAS | 1.75
DSHILGCLMGLAETPGCATLLPAS | 1.87
DSHILHCLMGLAETPGCATLLPAS | 1.9
DSHILSCLMGLAETPGCATLLPAS | 1.53
DSHILMCLMGLAETPGCATLLPAS | 2.02
DSHILRCLMGLAETPGCATLLPAS | 2.98
LSHILLCLMGLAETPGCATLLPAS | 3.08
WSHILLCLMGLAETPGCATLLPAS | 3.42
SSHILLCLMGLAETPGCATLLPAS | 3.75
RSHILLCLMGLAETPGCATLLPAS | 4.01
ISHILLCLMGLAETPGCATLLPAS | 2.64

Variant | protein stability index
CSHILLCLMGLAETPGCATLLPAS | 3.49
ESHILLCLMGLAETPGCATLLPAS | 2.55
QSHILLCLMGLAETPGCATLLPAS | 2.87
KSHILLCLMGLAETPGCATLLPAS | 2.07
GSHILLCLMGLAETPGCATLLPAS | 3.42
ASHILLCLMGLAETPGCATLLPAS | 2.99
HSHILLCLMGLAETPGCATLLPAS | 2.19
TSHILLCLMGLAETPGCATLLPAS | 2.58
YSHILLCLMGLAETPGCATLLPAS | 1.7
VSHILLCLMGLAETPGCATLLPAS | 3.42
MSHILLCLMGLAETPGCATLLPAS | 2.4
DSHIELCLMGLAETPGCATLLPAS | 1.78
DSHIKLCLMGLAETPGCATLLPAS | 2.12
DSHISLCLMGLAETPGCATLLPAS | 1.78
DSHIHLCLMGLAETPGCATLLPAS | 1.8
DSHITLCLMGLAETPGCATLLPAS | 1.65
DSHIRLCLMGLAETPGCATLLPAS | 1.44
DSHIVLCLMGLAETPGCATLLPAS | 2.28
DSHIALCLMGLAETPGCATLLPAS | 1.77
DSHIDLCLMGLAETPGCATLLPAS | 2.09
DSHIGLCLMGLAETPGCATLLPAS | 2.01
DSHIFLCLMGLAETPGCATLLPAS | 1.59
DSHIQLCLMGLAETPGCATLLPAS | 2.27
DSHIPLCLMGLAETPGCATLLPAS | 3.06

Variant | protein stability index
DSHIYLCLMGLAETPGCATLLPAS | 2.77
DSHINLCLMGLAETPGCATLLPAS | 1.73
DSHIWLCLMGLAETPGCATLLPAS | 2.79
DSHICLCLMGLAETPGCATLLPAS | 2.07
DSHCLLCLMGLAETPGCATLLPAS | 2.15
DSHRLLCLMGLAETPGCATLLPAS | 1.77
DSHPLLCLMGLAETPGCATLLPAS | 1.86
DSHMLLCLMGLAETPGCATLLPAS | 1.86
DSHTLLCLMGLAETPGCATLLPAS | 1.93
DSHDLLCLMGLAETPGCATLLPAS | 1.92
DSHGLLCLMGLAETPGCATLLPAS | 2.11
DSHLLLCLMGLAETPGCATLLPAS | 2.96
DSHKLLCLMGLAETPGCATLLPAS | 2.2
DSHALLCLMGLAETPGCATLLPAS | 1.67
DSHELLCLMGLAETPGCATLLPAS | 1.99
DSHYLLCLMGLAETPGCATLLPAS | 2.33
DSHQLLCLMGLAETPGCATLLPAS | 2.13
DSHSLLCLMGLAETPGCATLLPAS | 1.82
DSHVLLCLMGLAETPGCATLLPAS | 3.46
DSHHLLCLMGLAETPGCATLLPAS | 1.64
DSHWLLCLMGLAETPGCATLLPAS | 2.97
DSHFLLCLMGLAETPGCATLLPAS | 2.53
DSHNLLCLMGLAETPGCATLLPAS | 1.93
DVHILLCLMGLAETPGCATLLPAS | 3.74

Variant | protein stability index
DQHILLCLMGLAETPGCATLLPAS | 3.81
DRHILLCLMGLAETPGCATLLPAS | 2.46
DMHILLCLMGLAETPGCATLLPAS | 2.31
DTHILLCLMGLAETPGCATLLPAS | 2.09
DNHILLCLMGLAETPGCATLLPAS | 2.39
DHHILLCLMGLAETPGCATLLPAS | 1.36
DWHILLCLMGLAETPGCATLLPAS | 2.68
DIHILLCLMGLAETPGCATLLPAS | 2.04
DGHILLCLMGLAETPGCATLLPAS | 3.25
DFHILLCLMGLAETPGCATLLPAS | 3.1
DKHILLCLMGLAETPGCATLLPAS | 2.03
DDHILLCLMGLAETPGCATLLPAS | 2.64
DAHILLCLMGLAETPGCATLLPAS | 3.22
DEHILLCLMGLAETPGCATLLPAS | 2.48
DLHILLCLMGLAETPGCATLLPAS | 2.63
DPHILLCLMGLAETPGCATLLPAS | 2.04
DSEILLCLMGLAETPGCATLLPAS | 2.27
DSAILLCLMGLAETPGCATLLPAS | 2.76
DSDILLCLMGLAETPGCATLLPAS | 2.49
DSTILLCLMGLAETPGCATLLPAS | 3.73
DSKILLCLMGLAETPGCATLLPAS | 1.81
DSYILLCLMGLAETPGCATLLPAS | 2.67
